Reference: US20050084449A1 (CELLDEX THERAPEUTICS, published 2005)

T1: TIM-1 antigen, cell membrane-bound (on ACHN, CAKI-2, CAKI-1 renal cancer cells and polarized/activated human … (human, UniProt Q96D42 21-364))
T1 construct: whole, on cells; Endogenous protein on cells; also called HAVcr-1; KIM-1
T1 sequence (looked up): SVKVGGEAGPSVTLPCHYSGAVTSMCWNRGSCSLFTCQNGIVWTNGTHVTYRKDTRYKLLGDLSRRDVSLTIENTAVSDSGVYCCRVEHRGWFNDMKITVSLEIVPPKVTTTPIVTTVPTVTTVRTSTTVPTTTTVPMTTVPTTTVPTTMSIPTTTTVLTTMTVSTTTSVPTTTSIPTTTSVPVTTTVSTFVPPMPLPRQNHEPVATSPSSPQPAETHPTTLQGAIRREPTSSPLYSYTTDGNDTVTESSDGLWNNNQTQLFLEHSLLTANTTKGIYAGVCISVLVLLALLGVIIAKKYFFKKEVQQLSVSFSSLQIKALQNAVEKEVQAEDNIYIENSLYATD

T2: synthetic peptide PMPLPRQAHE (SEQ ID NO:102)
T2 peptide: PMPLPRQAHE

T3: synthetic peptide PMPLARQNHE (SEQ ID NO:99)
T3 peptide: PMPLARQNHE

T4: TIM-1 peptide G) PRQNHEPVAT (human)
T4 peptide: PRQNHEPVAT

T5: TIM-1 peptide D) PMPLPRQN (human)
T5 peptide: PMPLPRQN

T6: TIM-1 peptide H) QNHEPVAT (human)
T6 peptide: QNHEPVAT

T7: TIM-1 peptide I) HEPVAT (human)
T7 peptide: HEPVAT

T8: TIM-1 peptide E) PMPLPR (human)
T8 peptide: PMPLPR


How the values were obtained:
[1] = target: T1, TIM-1 antigen, cell membrane-bound (on …); assay: FACS on ACHN cells, normalized to isotype control pK16
[2] = target: T1, TIM-1 antigen, cell membrane-bound (on …); assay: FACS on CAKI-2 cells, normalized to isotype control pK16
[3] = target: T1, TIM-1 antigen, cell membrane-bound (on …); assay: FACS on polarized human CD4+ Th2 cells, 10 ug/mL mAb
Protocol: Mononuclear cells were isolated from human blood diluted 1:1 in PBS, by spinning over Ficoll for 20 minutes. […] 20 μL of CD4 Miltenyi beads were added per 107 cells and incubated for 15 minutes on ice. Cells were washed with a 10-fold excess volume of Miltenyi buffer. A positive selection column (type VS+) (Miltenyi Biotec Inc., Auburn, Calif.) was washed with 3 mL of Miltenyi buffer. The pelleted cells were re-suspended at 10^8 cells per mL of Miltenyi buffer and applied to the washed VS column. The column was then washed three times with 3 mL of Miltenyi buffer. Following this, the VS column was removed from the magnetic field and CD4+ cells were eluted from the column with 5 mL of Miltenyi buffer. […] Cells were spun down and supernatant removed. Cells were blocked with 20% goat serum in FSB for 30 minutes on ice. Cells were washed as above and incubated with 10 μg/mL of primary human anti-TIM-1 mAb or control PK16.3 mAb in FSB (200 μL) for 45 minutes on ice followed by washing. Secondary goat anti-human PE conjugated antibody was added at 1:50 dilution for 45 minutes on ice in the dark, washed, resuspended in 500 μL of PBS containing 1% formaldehyde and kept at 4° C. until flow cytometry analysis was performed.
Data is reported as the geometric mean of the fluorescence intensity.

[4] = target: T2, synthetic peptide PMPLPRQAHE (SEQ ID …); assay: peptide ELISA, alanine scan
[5] = target: T3, synthetic peptide PMPLARQNHE (SEQ ID …); assay: peptide ELISA, alanine scan
[6] = target: T4, TIM-1 peptide G) PRQNHEPVAT; assay: peptide ELISA
Description: (§1) Assay plates were coated with the TIM-1 fragment peptides, using irrelevant peptide or no peptide as controls. […] Human antibody not specific to TIM-1, an isotype control antibody or no antibody served as controls.

[7] = target: T5, TIM-1 peptide D) PMPLPRQN; assay: peptide ELISA
Description: as §1

[8] = target: T6, TIM-1 peptide H) QNHEPVAT; assay: peptide ELISA
Description: as §1

[9] = target: T7, TIM-1 peptide I) HEPVAT; assay: peptide ELISA
Description: as §1

[10] = target: T8, TIM-1 peptide E) PMPLPR; assay: peptide ELISA
Description: as §1

| Geo Mean Ratio (relative to negative control) [1] [ratio] | Geo Mean Ratio (relative to negative control) [2] [ratio] | Geometric mean of fluorescence intensity [3] | binding result [4] | binding result [5] | binding result [6] | binding result [7] | binding result [8] | binding result [9] | binding result [10] | Binder |
| --- | --- | --- | --- | --- | --- | --- | --- | --- | --- | --- |
| 7.9 |  |  |  |  |  |  |  |  |  | anti-TIM-1 mAb 2.16 (antibody, V domains shown, also called 2.16.1 (subclone)) VH: EQSGGGVVKPGGSLRLSCAASGFTFSNAWMTWVRQAPGKGLEWVGRIKRRTDGGTTDYAAPVKGRFTISRDDSKNTLYLQMNNLKNEDTAVYYCTSVDNDVDYWGQGTLVTVSS VL: not shown |
| 15.2 | 7.7 | 22 |  |  |  |  |  |  |  | anti-TIM-1 mAb 2.59 (antibody, human IgG4, V domains shown, Biotinylated for IHC) VH: QSGPRLVKPSQTLSLTCTVSGGSISSDGYYWSWIRQHPGKGLEWIGYIYYSGSTFYNPSLKSRVAISVDTSKNQFSLKLSSVTAADTAVYYCARESPHSSNWYSGFDCWGQGTLVTVSS VL: TQSPDFQSVTPKEKVTITCRASQSIGSRLHWYQQKPDQSPKLLIKYASQSFSGVPSRFSGSGSGTDFTLTINSLEAEDAATYYCHQSSNLPFTFGPGTKVDIKR |
| 19.4 | 8.8 | 27.8 | no binding | no binding | no binding | no binding | no binding | no binding | no binding | anti-TIM-1 mAb 2.70 (antibody, V domains shown, Subclone 2.70.2 is treated as the same antibody because its printed variable regions are identical; also called 2.70.2 (subclone); TIM-1 2.70.2) VH: QVQLVESGGGVVQPGRSLRLSCAASGFIFSRYGMHWVRQAPGKGLKWVAVIWYDGSNKLYADSVKGRFTISRDNSKNTLYLQMNSLRAEDTAVYYCARDYYDNSRHHWGFDYWGQGTLVTVSS VL: DIVMTQTPLSLPVTPGEPASISCRSSRSLLDSDDGNTYLDWYLQKPGQSPQLLIYTLSYRASGVPDRFSGSGSGTDFTLKISRVEAEDVGVYYCMQRVEFPITFGQGTRLEIKR |
| 17.9 |  | 22.3 |  |  |  |  |  |  |  | anti-TIM-1 mAb 1.29 (antibody, human IgG2, V domains shown) VH: QVQLQESGPGLVKPSETLSLTCTVSGGSVSSGGYYWSWIRQPPGKGLEWIGFIYYTGSTNYNPSLKSRVSISVDTSKNQFSLKLSSVTAADAAVYYCARDYDWSFHFDYWGQGTLVTVSS VL: DIQMTQSPSSLSASIGDRVTITCRASQGIRNDLGWYQQKPGKAPKRLIYAASSLQSGVPSRFSGSGSGTEFTLTISSLQPEDFATYYCLQHNSYPLTFGGGTKVEIKR |
